Data: article PMC2198949 (The Journal of Experimental Medicine, 1997)

Biological target: T1, murine 4-1BBL–CD8 fusion protein (mouse, UniProt P41274 104-309)
T1 sequence (looked up): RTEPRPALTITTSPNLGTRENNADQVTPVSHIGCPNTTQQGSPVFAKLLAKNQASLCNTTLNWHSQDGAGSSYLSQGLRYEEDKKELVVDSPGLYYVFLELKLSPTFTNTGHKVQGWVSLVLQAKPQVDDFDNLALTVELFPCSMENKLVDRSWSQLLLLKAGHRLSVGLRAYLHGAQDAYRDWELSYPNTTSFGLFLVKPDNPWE
Assay: SPR

Kd: 1.16 nM
koff: 0.000213 s⁻¹
kon: 183000 M⁻¹ s⁻¹
B1: murine 4-1BB–Ig fusion protein (Fc fusion, mouse, UniProt P20334 22-185, looked up)
chain: GAVQNSCDNCQPGTFCRKYNPVCKSCPPSTFSSIGGQPNCNICRVCAGYFRFKKFCSSTHNAECECIEGFHCLGPQCTRCEKDCRPGQELTKQGCKTCSLGTFNDQNGTGVCRPWTNCSLDGRSVLKTGTTEKDVVCGPPVVSFSPSTTISVTPEGGPGGHSLQ
